Like-named read-outs stand apart in the source and are kept apart here. Values belong to the molecule of their own block, whether it stands above or below them. Positions of bridges follow the written chain, without caps; N, C: chain ends. Non-standard residues stand in square brackets, D forms with d. No end group written: not given here. dCit = NC(=O)NCCC[C@@H](N)C(=O)O; Nle = CCCC[C@H](N)C(=O)O
Experiments:
[1] = target: T1, human MCH-2R (human, UniProt Q969V1 1-340); assay: SPA, total against non-specific binding (500 nM unlabeled hMCH)
T1 sequence (Q969V1 whole entry): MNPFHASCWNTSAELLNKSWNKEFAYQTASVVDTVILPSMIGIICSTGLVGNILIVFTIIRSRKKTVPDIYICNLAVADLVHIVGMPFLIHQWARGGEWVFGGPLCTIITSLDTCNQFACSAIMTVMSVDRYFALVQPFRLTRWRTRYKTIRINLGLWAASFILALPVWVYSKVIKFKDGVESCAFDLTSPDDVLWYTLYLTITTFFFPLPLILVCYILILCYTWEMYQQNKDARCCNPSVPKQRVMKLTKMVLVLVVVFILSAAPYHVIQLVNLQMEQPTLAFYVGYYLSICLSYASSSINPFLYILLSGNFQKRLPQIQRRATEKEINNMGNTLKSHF

[2] = target: T2, human MCH-1R (human, UniProt Q99705 1-353); assay: as above
T2 sequence (Q99705 whole entry): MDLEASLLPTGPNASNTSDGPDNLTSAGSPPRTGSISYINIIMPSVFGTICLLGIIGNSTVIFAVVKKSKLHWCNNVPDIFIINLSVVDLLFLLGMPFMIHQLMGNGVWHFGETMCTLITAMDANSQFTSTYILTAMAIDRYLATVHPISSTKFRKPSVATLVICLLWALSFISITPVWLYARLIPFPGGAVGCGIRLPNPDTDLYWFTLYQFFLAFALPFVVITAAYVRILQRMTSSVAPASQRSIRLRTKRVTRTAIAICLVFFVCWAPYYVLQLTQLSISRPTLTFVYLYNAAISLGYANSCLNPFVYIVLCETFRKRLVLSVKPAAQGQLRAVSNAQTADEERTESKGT

[3] = target: T1, human MCH-2R; assay: cell-based or functional assay
[4] = target: T2, human MCH-1R; assay: cell-based or functional assay
[5] = target: T2, human MCH-1R; assay: ratio of the two SPA IC50s
[6] = target: T1, human MCH-2R; assay: SPA, displacement of [125I]-[Phe13,Tyr19]-hMCH, MCH-2R membranes
Procedure: (§1) After equilibrating at room temperature for 3 hours, the plates were read in a TopCount (Packard, Meriden, Conn.). IC₅₀ calculations were performed using Prism 3.0 (GraphPad. Software, San Diego, Calif.). The IC₅₀ values were measured in three different experiments.

[7] = target: T2, human MCH-1R; assay: SPA, displacement of [125I]-[Phe13,Tyr19]-hMCH, CHO/MCH-1R membranes
Procedure: as §1

[8] = target: T1, human MCH-2R; assay: SPA radioligand binding assay
Procedure: as §1

[9] = target: T2, human MCH-1R; assay: SPA radioligand binding assay
Procedure: as §1

[10] = target: T1, human MCH-2R; assay: cell-based or functional assay; remark: listed apart in the source
[11] = target: T2, human MCH-1R; assay: cell-based or functional assay; remark: listed apart in the source
[12] = target: T2, human MCH-1R; assay: SPA, displacement of [125I]-[Phe13,Tyr19]-hMCH, CHO/MCH-1R membranes
[13] = target: T1, human MCH-2R; assay: cell-based or functional assay; remark: listed apart in the source
[14] = target: T2, human MCH-1R; assay: cell-based or functional assay; remark: listed apart in the source
[15] = target: T2, human MCH-1R; assay: SPA, displacement of [125I]-[Phe13,Tyr19]-hMCH, CHO/MCH-1R membranes; remark: listed apart in the source
Procedure: as §1

[16] = target: T2, human MCH-1R; assay: ratio of the two SPA IC50s; remark: listed apart in the source
Procedure: as §1

[17] = target: T1, human MCH-2R; assay: SPA, displacement of [125I]-[Phe13,Tyr19]-hMCH, MCH-2R membranes; remark: listed apart in the source
Procedure: as §1

[18] = target: T1, human MCH-2R; assay: cell-based or functional assay; remark: listed apart in the source
[19] = target: T2, human MCH-1R; assay: cell-based or functional assay; remark: listed apart in the source
[20] = target: T1, human MCH-2R; assay: SPA, displacement of [125I]-[Phe13,Tyr19]-hMCH, MCH-2R membranes
[21] = target: T2, human MCH-1R; assay: ratio of the two SPA IC50s
[22] = target: T1, human MCH-2R; assay: cell-based or functional assay; remark: listed apart in the source
[23] = target: T2, human MCH-1R; assay: cell-based or functional assay; remark: listed apart in the source
[24] = target: T1, human MCH-2R; assay: SPA, displacement of [125I]-[Phe13,Tyr19]-hMCH, MCH-2R membranes; remark: listed apart in the source
Procedure: as §1

[25] = target: T2, human MCH-1R; assay: SPA, displacement of [125I]-[Phe13,Tyr19]-hMCH, CHO/MCH-1R membranes; remark: listed apart in the source
Procedure: as §1

[26] = target: T2, human MCH-1R; assay: ratio of the two SPA IC50s; remark: listed apart in the source

specific binding window [1]: 3 ×
specific binding window [2]: > 6 ×
Molecule: [^125I]-[Phe^13Tyr^19]-hMCH (peptide)

Activation %, aequorin bioluminescence [3]: 47%
EC50, aequorin bioluminescence [3]: 3100 nM
Activation %, aequorin bioluminescence [4]: 92%
EC50, aequorin bioluminescence [4]: 610 nM
Selectivity 2/1 (MCH-2R/MCH-1R EC50 activity ratio) [4]: 5 ratio
Selectivity 2/1 (MCH-2R/MCH-1R IC50 ratio) [5]: 500 ratio
IC50 [6]: 3500 nM
IC50 [7]: 7 nM
IC50 [8]: > 3000 nM
fold lower binding affinity than Ac-hMCH(6-16)-NH2 [9]: ~5 fold
EC50 [10]: > 3000 nM
fold lower activity than Ac-hMCH(6-16)-NH2 [11]: ~30 fold
B1: SEQ. ID. NO. 15 (Δ(X^6-Cys^7), Mpr^7 analog of Ac-hMCH(6-16)-NH2) (peptide)
peptide: XMLGRVYRPC
modifications: Ac-Arg^6 segment eliminated; Mpr, des-amino-cysteine (3-mercaptopropionic acid) at position 7 instead of Cys; C-terminal amide; disulfide ring

IC50 [12]: 8.3 nM
Activation %, aequorin bioluminescence [13]: 8%
EC50, aequorin bioluminescence [13]: > 10000 nM
Activation %, aequorin bioluminescence [14]: 110%
EC50, aequorin bioluminescence [14]: 1460 nM
Molecule: Ac-[dCit]CMLNRVYRPC-NH2 (disulfide 2-11 (inferred)) [SEQ. ID. NO. 34 (D-Cit^6, Asn^10 analog of Ac-hMCH(6-16)-NH2)]

IC50 [15]: 0.5 nM
Selectivity 2/1 (MCH-2R/MCH-1R IC50 ratio) [16]: 6600 ratio
IC50 [17]: 3300 nM
fold more selective as agonist for hMCH-1R than hMCH-2R [11]: ~150 fold
Activation %, aequorin bioluminescence [18]: 20%
EC50, aequorin bioluminescence [18]: 8400 nM
Activation %, aequorin bioluminescence [19]: 120%
EC50, aequorin bioluminescence [19]: 55 nM
Selectivity 2/1 (MCH-2R/MCH-1R EC50 activity ratio) [19]: 150 ratio
B2: SEQ. ID. NO. 29 (D-Arg^6, Asn^10 analog of Ac-hMCH(6-16)-NH2) (peptide)
peptide: XCMLNRVYRPC
HELM: PEPTIDE1{[ac].[dR].C.M.L.N.R.V.Y.R.P.C.[am]}$PEPTIDE1,PEPTIDE1,3:R3-12:R3$$$V2.0
SMILES: CSCC[C@@H]1NC(=O)[C@@H](NC(=O)[C@@H](CCCNC(=N)N)NC(C)=O)CSSC[C@@H](C(N)=O)NC(=O)[C@@H]2CCCN2C(=O)[C@H](CCCNC(=N)N)NC(=O)[C@H](Cc2ccc(O)cc2)NC(=O)[C@H](C(C)C)NC(=O)[C@H](CCCNC(=N)N)NC(=O)[C@H](CC(N)=O)NC(=O)[C@H](CC(C)C)NC1=O

IC50 [15]: 6.1 nM
Selectivity 2/1 (MCH-2R/MCH-1R IC50 ratio) [16]: 230 ratio
IC50 [17]: 1400 nM
fold more selective as agonist for hMCH-1R than hMCH-2R [11]: ~150 fold
Activation %, aequorin bioluminescence [18]: 11%
EC50, aequorin bioluminescence [18]: > 10000 nM
Activation %, aequorin bioluminescence [19]: 74%
EC50, aequorin bioluminescence [19]: 2300 nM
B3: SEQ. ID. NO. 30 (D-Arg^6, Gln^10 analog of Ac-hMCH(6-16)-NH2) (peptide)
peptide: XCMLQRVYRPC
HELM: PEPTIDE1{[ac].[dR].C.M.L.Q.R.V.Y.R.P.C.[am]}$PEPTIDE1,PEPTIDE1,3:R3-12:R3$$$V2.0
SMILES: CSCC[C@@H]1NC(=O)[C@@H](NC(=O)[C@@H](CCCNC(=N)N)NC(C)=O)CSSC[C@@H](C(N)=O)NC(=O)[C@@H]2CCCN2C(=O)[C@H](CCCNC(=N)N)NC(=O)[C@H](Cc2ccc(O)cc2)NC(=O)[C@H](C(C)C)NC(=O)[C@H](CCCNC(=N)N)NC(=O)[C@H](CCC(N)=O)NC(=O)[C@H](CC(C)C)NC1=O

IC50 [15]: 3.2 nM
fold more selective with respect to hMCH-2R [11]: ~50 fold
fold weaker agonist than the parent compound [11]: 5 fold
Activation %, aequorin bioluminescence [18]: 17%
EC50, aequorin bioluminescence [18]: > 10000 nM
Activation %, aequorin bioluminescence [19]: 109%
EC50, aequorin bioluminescence [19]: 260 nM
B4: SEQ. ID. NO. 33 (D-Arg^6, Asn^10, Ala^14 analog of Ac-hMCH(6-16)-NH2) (peptide)
peptide: XCMLNRVYAPC
HELM: PEPTIDE1{[ac].[dR].C.M.L.N.R.V.Y.A.P.C.[am]}$PEPTIDE1,PEPTIDE1,3:R3-12:R3$$$V2.0
SMILES: CSCC[C@@H]1NC(=O)[C@@H](NC(=O)[C@@H](CCCNC(=N)N)NC(C)=O)CSSC[C@@H](C(N)=O)NC(=O)[C@@H]2CCCN2C(=O)[C@H](C)NC(=O)[C@H](Cc2ccc(O)cc2)NC(=O)[C@H](C(C)C)NC(=O)[C@H](CCCNC(=N)N)NC(=O)[C@H](CC(N)=O)NC(=O)[C@H](CC(C)C)NC1=O

Activation %, aequorin bioluminescence [3]: 68%
EC50, aequorin bioluminescence [3]: 310 nM
Activation %, aequorin bioluminescence [4]: 91%
EC50, aequorin bioluminescence [4]: 920 nM
IC50 [6]: 134 nM
IC50 [7]: 3 nM
B5: SEQ. ID. NO. 14 (Ac-D-Cit^6 analog of Ac-hMCH(6-16)-NH2) (peptide)
peptide: XCMLGRVYRPC
modifications: N-terminal acetyl; D-Cit (D-citrulline) at position 6; C-terminal amide; disulfide cycle

IC50 [20]: 250 nM
Selectivity 2/1 (MCH-2R/MCH-1R IC50 ratio) [21]: 890
IC50 [12]: 0.09 nM
Activation %, aequorin bioluminescence [13]: 53%
EC50, aequorin bioluminescence [13]: 1470 nM
Activation %, aequorin bioluminescence [14]: 130%
EC50, aequorin bioluminescence [14]: 350 nM
Selectivity 2/1 (MCH-2R/MCH-1R EC50 activity ratio) [14]: 4
Molecule: [dR]C[Nle]LNRVYRPC-NH2 (disulfide 2-11 (inferred)) [SEQ. ID. NO. 32 (ΔAc, D-Arg^6, Nle^8, Asn^10 analog of Ac-hMCH(6-16)-NH2)]

Activation %, aequorin bioluminescence [3]: 100%
EC50, aequorin bioluminescence [3]: 30.7 nM
Activation %, aequorin bioluminescence [4]: 100%
IC50 [6]: 0.5 nM
Activation %, aequorin bioluminescence [22]: 100%
EC50, aequorin bioluminescence [22]: 30.7 nM
Activation %, aequorin bioluminescence [23]: 100%
IC50 [24]: 0.5 nM
IC50 [17]: 0.5 nM
Activation %, aequorin bioluminescence [18]: 100%
EC50, aequorin bioluminescence [18]: 30.7 nM
Activation %, aequorin bioluminescence [19]: 100%
Molecule: DFDMLRCMLGRVYRPCWQV (disulfide 7-16 (inferred)) [human MCH]

IC50 [15]: 0.28 nM
Selectivity 2/1 (MCH-2R/MCH-1R IC50 ratio) [16]: 5700 ratio
IC50 [17]: 1600 nM
Activation %, aequorin bioluminescence [18]: 23%
EC50, aequorin bioluminescence [18]: 5500 nM
Activation %, aequorin bioluminescence [19]: 130%
EC50, aequorin bioluminescence [19]: 240 nM
Selectivity 2/1 (MCH-2R/MCH-1R EC50 activity ratio) [19]: 23 ratio
B6: SEQ. ID. NO. 31 (D-Arg^6, Nle^8, Asn^10 analog of Ac-hMCH(6-16)-NH2) (peptide)
peptide: XCXLNRVYRPC
HELM: PEPTIDE1{[ac].[dR].C.[Nle].L.N.R.V.Y.R.P.C.[am]}$PEPTIDE1,PEPTIDE1,3:R3-12:R3$$$V2.0
SMILES: CCCC[C@@H]1NC(=O)[C@@H](NC(=O)[C@@H](CCCNC(=N)N)NC(C)=O)CSSC[C@@H](C(N)=O)NC(=O)[C@@H]2CCCN2C(=O)[C@H](CCCNC(=N)N)NC(=O)[C@H](Cc2ccc(O)cc2)NC(=O)[C@H](C(C)C)NC(=O)[C@H](CCCNC(=N)N)NC(=O)[C@H](CC(N)=O)NC(=O)[C@H](CC(C)C)NC1=O

Activation %, aequorin bioluminescence [4]: 99%
EC50, aequorin bioluminescence [4]: 20 nM
IC50 [15]: 0.5 nM
IC50 [6]: 2 nM
IC50 [7]: 1.4 nM
IC50 [25]: 0.5 nM
Activation %, aequorin bioluminescence [23]: 99%
EC50, aequorin bioluminescence [23]: 20 nM
IC50 [24]: 2 nM
IC50 [17]: 2 nM
Activation %, aequorin bioluminescence [19]: 99%
EC50, aequorin bioluminescence [19]: 20 nM
Molecule: Ac-RCMLGRVYRPC-NH2 (disulfide 2-11 (inferred), also called ID; NO; parent compound) [Ac-hMCH(6-16)-NH2]

IC50 [25]: 0.03 nM
Selectivity 2/1 (MCH-2R/MCH-1R IC50 ratio) [26]: 1900 ratio
Activation %, aequorin bioluminescence [22]: 74%
EC50, aequorin bioluminescence [22]: 57 nM
Activation %, aequorin bioluminescence [23]: 123%
EC50, aequorin bioluminescence [23]: 32 nM
Selectivity 2/1 (MCH-2R/MCH-1R EC50 activity ratio) [23]: 1.8 ratio
IC50 [24]: 27 nM
Molecule: Ac-RCMLLRVYRPC-NH2 (disulfide 2-11 (inferred)) [SEQ. ID. NO. 17 (Leu^10 analog of Ac-hMCH(6-16)-NH2)]

IC50 [25]: 0.44 nM
Selectivity 2/1 (MCH-2R/MCH-1R IC50 ratio) [26]: 16 ratio
Activation %, aequorin bioluminescence [22]: 102%
EC50, aequorin bioluminescence [22]: 15 nM
Activation %, aequorin bioluminescence [23]: 121%
EC50, aequorin bioluminescence [23]: 51 nM
Selectivity 2/1 (MCH-2R/MCH-1R EC50 activity ratio) [23]: 0.29 ratio
IC50 [24]: 7 nM
Molecule: Ac-RCMLARVYRPC-NH2 (disulfide 2-11 (inferred)) [SEQ. ID. NO. 16 (Ala^10 analog of Ac-hMCH(6-16)-NH2)]

Source: US20050020492A1 (MERCK, published 2005)
